Laboratory results: paper doi:10.1101/2023.01.09.523197

Molecular target: GlnR147-Alexa647;RNAP holoenzyme (Mycobacterium …, UniProt O53830;P9WGZ1;P9WGY9;P9WGY7;P9WGY5;P9WGI1 1-255;1-347;1-1178;1-1316;1-110;1-528, C61S;L148C|)
Assay: […], SEC in 20 mM Tris-HCl pH 8.0, 75 mM NaCl, 5 mM MgCl2

B1: amtB+2Cy3 (dsDNA)
DNA 1: GCCCCGGCCGTTCACCCACGCGTAACACGCACCGTGCCTTCGTCACGGCGGCGAAACAACGAGGGGCTTCCACCGAAACCGCGCTGCGTCAATGTCGTGGCGCATAACCGGCCCACCCCT
DNA 2: AGGGGTGGGCCGGTTATGCGCCACGACATTGACGCAGCGCGGTTTCGGTGGAAGCCCCTCGTTGTTTCGCCGCCGTGACGAAGGCACGGTGCGTGTTACGCGTGGGTGAACGGCCGGGGC
Q: Does B1 bind?
A: Result: binds
